Experiments:
A20 cells [1] = assay: effect of timing of CD80-CSA administration after biotinylation of A20 tumors; type: in vivo, BALB/c mice
Procedure: A similar protocol was followed to evaluate the effect of the timing of the CD80-CSA administration subsequent to biotinylation. 1×10^6 A20 cells were injected subcutaneously into the right back flank of naïve BALB/c mice. Tumor growth was monitored and measured using calipers three times a week. When the tumor size reached 7-9 mm average diameter, 300 μl of 5 mM biotin solution (EZ-Link Sulfo-NHS-LC-Biotin in PBS) was injected into the tumors. At 2, 4, 8 or 16 hours after biotin injection, biotinylation was assessed as described above and 50 μg of CD80-SA was administered by intratumoral injection. (Some animals were left untreated as negative controls.) Animals were euthanized 16 hours after CD80-SA injection. Tumors were processed into single cell suspensions, and fusion protein levels were detected by an antibody against CD80 using flow cytometry. The results (FIG. 16) show a greater percentage of biotinylated cells decorated when the fusion protein was administered 16 hours after biotin administration, with 62% of biotinylated cells being decorated, compared to 49%, 31% and 10% at 8, 4 and 2 hours post-biotin administration, respectively.

LLC cells = assay: ex vivo co-display of fusion proteins on biotinylated LLC cells (flow cytometry); type: cell-based; conditions: 15 μM biotin, 100 ng/protein/10^6 cells
Procedure: (§1) Engineering of cell surfaces. LLC or A20 tumor cells are washed with ice-cold PBS and incubated at 2×10^7 cells/ml in PBS, pH 8.0, containing 5-15 μM EZ-Link™ Sulfo-NHS-LC-Biotin (Pierce) at room temperature for 30 min. Cells are washed extensively and incubated at 1×10^6 cell/ml with 100 ng/purified immune co-stimulatory-streptavidin fusion protein for 45 min at 4° C. After extensive washing with PBS, cells are processed for flow cytometric analysis to assess the cells engineered with the immune co-stimulatory fusion proteins. Such cells also are used for functional studies in vitro. Cells are irradiated at 100 Gy prior to being used in in vitro studies.
One million LLC cells were biotinylated using 15 μM of EZ-Link™ Sulfo-NHS-LC-Biotin derivative from Pierce Biotechnology, Inc. (Rockford, Ill.) in PBS at room temperature for 20-30 minutes. Biotin was then removed by centrifugation, cells were washed once, transferred into a clean second tube, washed 1-2 more times, and then contacted with CD80-CSA and 4-1BBL-CSA fusion proteins at 100 ng/protein/10^6 cells in PBS for 30-45 minutes on ice. Cells were then washed extensively and used for staining with saturating concentrations of various fluorochrome-conjugated antibodies to CD80 and 4-1BBL in PBS by incubation on ice for 30-45 minutes. Cells were then washed extensively with FACS medium and used for flow cytometric analysis. […] FIG. 8.

A20 B lymphoma cells [2] = assay: in vivo engineering of solid A20 tumors (intratumoral biotin, then CD80-CSA); design: species or system Balb/c mice
Procedure: One million live A20 B lymphoma cells were injected subcutaneously to the right flank of naïve syngeneic Balb/c mice. When the tumor size reached 7-9 mm in diameter, 300 μL of 1 mM EZ-Link Sulfo-NHS-LC-Biotin in PBS was injected into the tumor, followed 24 hrs later by intratumoral injection of 40 μg of CD80-CSA fusion protein in 150 μL PBS. Tumor cells were harvested and analyzed 24 hrs after protein injection. Biotin levels were detected by streptavidin-APC and fusion protein levels were detected by an antibody against CD80. Cells from untreated tumors and biotinylated tumors were used as negative controls for biotin and CD80, respectively.

[3] = system: peripheral blood lymphocytes from healthy volunteers; assay: MLTR assay with tumor cells engineered with CD80-CSA; type: cell-based, human; conditions: HEC-1-A endometrial cancer cell line engineered with CD80-CSA
A20 B lymphoma cells [4] = assay: quantification of CD80-CSA molecules displayed per cell (Quantum-27 MESF kit); type: cell-based; conditions: 5 μM biotin, 100 ng protein
Procedure: Cells were stained with phycoerythrin (PE) conjugated anti-human CD80 antibody. The Quantum-27 MESF kit from Bangs Laboratories was used to estimate the number of CD80-CSA molecules per cell. Molecules of equivalent soluble fluorochrome (MESF) for the samples were calculated according to the calibration curve constructed by five MESF beads with varying MESF values (0, 727, 2737, 10110, 41738) using Cell Quest analysis program (Becton Dickinson Biosciences). The data for each sample was converted into MESF values. FIG. 10.

splenocytes = assay: in vivo kinetics of protein display on ex vivo engineered splenocytes; conditions: 15 μM biotin, 100 ng/1×10^6 cells, injected intravenously into syngeneic animals
Procedure: The kinetics of persistence of the exogenous proteins on the cell surface was determined in vivo. Splenocytes were modified with biotin (15 μM), engineered with an CD80-CSA fusion protein (100 ng/1×10^6 cells), labeled with CFSE, and injected intravenously into syngeneic animals. Splenocytes and LN cells were harvested various days post-injection and analyzed for the presence of fusion protein on CFSE positive cells. CD80-CSA persisted on the surface of splenocytes with a t1/2 of >10 days. FIG. 9.

A20 cells [5] = assay: ex vivo co-display of fusion proteins on biotinylated A20 cells (flow cytometry); type: cell-based; conditions: 5 μM biotin, 100 ng/protein/10^6 cells
Procedure: as §1
A20 cells were biotinylated (5 μM) and then contacted with CD80-CSA and 4-1BBL-CSA fusion proteins at 100 ng/protein/10^6 cells, following procedures similar to those set forth above.

CD4^+ or CD8^+ T cells = assay: proliferation of CFSE-labeled T cells against A20 cells decorated with 4-1BBL; type: cell-based, C57B/6 (H2-K^b) mice; conditions: 4:1 ratio, 4 days co-culture, flow cytometry
Procedure: CD4^+ and CD8^+ T cells were FACS-sorted from spleens and lymph nodes of naïve C57B/6 (H2-K^b) mice and were stained with carboxyfluorescein diacetate succinimidylester (CFSE). Briefly, cells were washed with PBS, incubated in 4 ml of 2.5 μM CFSE/1×10^6 cells for 7 minutes at room temperature. Cells were then incubated in two volumes of FBS for 1 min, and washed 2 times with PBS. A20 B lymphoma cells (H2-K^d) were washed in PBS and biotinylated using freshly prepared EZ-Link Sulfo-NHS-LC-Biotin in PBS (1 ml solution per 50×10^6 cells) for 30 min at room temperature. After washing with PBS, cells were irradiated at 10000 cGy. Biotinylated and irradiated A20 cells were incubated with CSA-4-1BBL (100 ng/1×10^6cells) or control protein CSA (38 ng/1×10^6 cells) in 5 ml tubes for 30 minutes in a cold room. After washing the cells extensively, some of the cells were stained with fluorochrome conjugated antibodies against 4-1BBL and streptavidin to detect the decoration, or with fluorochrome conjugated streptavidin to detect biotinylation. […]
Proliferation of T cells were determined using flow cytometry after staining cells with fluorochrome conjugated anti-CD4 or anti-CD8 antibodies.

Molecule	biotinylated cells being decorated (A20 cells [1]; 50 μg intratumorally 2 hours after 5 mM biotin) [%]	biotinylated cells being decorated (A20 cells [1]; 50 μg intratumorally 4 hours after 5 mM biotin) [%]	biotinylated cells being decorated (A20 cells [1]; 50 μg intratumorally 8 hours after 5 mM biotin) [%]	biotinylated cells being decorated (A20 cells [1]; 50 μg intratumorally 16 hours after 5 mM biotin) [%]	display on the surface of tumor cells (LLC cells)	tumor cells positive for CD80 (A20 B lymphoma cells [2]; 40 μg intratumorally 24 hrs after biotin, 24 hrs after protein injection) [%]	biotin positive cells displaying protein (A20 B lymphoma cells [2]; I mM biotin followed by 40 μg 24 hrs later) [%]	proliferative response of peripheral blood lymphocytes [3]	average number of molecules per cell (A20 B lymphoma cells [4])	t1/2 of persistence on the surface of splenocytes in vivo (splenocytes) [h]	display on the surface of tumor cells (A20 cells [5])	proliferative response of T cells against decorated A20 cells (CD4^+ or CD8^+ T cells) [%]
CD80-CSA: chimeric protein comprising the extracellular domain of human B7.1 (CD80) and core streptavidin (SEQ ID NO:4) (protein) SPVQLKGGSDLNMKLCILLAVVAFVGLSLGRSIHVTKEVKEVATLSCGHNVSVEELAQTRIYWQKEKKMVLTMMSGDMNIWPEYKNRTIFDITNNLSIVILALRPSDEGTYECVVLKYEKDAFKREHLAEVTLSVKADFPTPSISDFEIPTSNIRRIICSTSGGFPEPHLSWLENGEELNAINTTVSQDPETELYAVSSKLDFNMTTNHSFMCLIKYGHLRVNQTFNWNTTKQERSHHHHHHITGTWYNQLGSTFIVTAGADGALTGTYESAVGNAESRYVLTGRYDSAPATDGSGTALGWTVAWKNNYRNAHSATTWSGQYVGGAEARINTQWLLTSGATEANAWKSTLVGHDTFTKVKPSAASSRILQISSTVAAARV	10	31	49	62	co-displayed on the surface of tumor cells at comparable levels	81	> 80	potent proliferative responses	118,000 molecules per cell	> 240	co-displayed on the surface of tumor cells at comparable levels	
4-1BBL-CSA: CSA-murine 4-1 BBL fusion protein (SEQ ID NOs 5 and 6) (protein) FMQLKGGSDLNMKLCILLAVVAFVGLSLGRSHHHHHHITGTWYNQLGSTFIVTAGADGALTGTYESAVGNAESRYVLTGRYDSAPATDGSGTALGWTVAWKNNYRNAHSATTWSGQYVGGAEARINTQWLLTSGATEANAWKSTLVGHDTFTKVKPSAASSEFRTEPRPALTITTSPNLGTRENNADQVTPVSHIGCPNTTQQGSPVFAKLLAKNQASLCNTTLNWHSQDGAGSSYLSQGLRYEEDKKELVVDSPGLYYVFLELKLSPTFTNTGHKVQGWVSLVLQAKPQVDDFDNLALTVELFPCSMENKLVDRSWSQLLLLKAGHRLSVGLRAYLHGAQDAYRDWELSYPNTTSFGLFLVKPDNPWE					co-displayed on the surface of tumor cells at comparable levels						co-displayed on the surface of tumor cells at comparable levels	52.6

Source: patent US20070172504A1, “In vivo cell surface engineering” (University of Lousville Research Foundation, Inc., priority 2005, published 2007)
